Three molecules from article PMC4532887, “Structural and mechanistic insights into phospholipid transfer by Ups1–Mdm35 in mitochondria” (Nature Communications, 2015) can be followed below.

Positions count from the first letter of the chain named.

Common to all, as to details: both partners purified
For assay [1], the target named is T1, full-length His6-Ups1 R25K (S. cerevisiae, UniProt Q05776 1-175, R25K).
T1 construct: Ups1, Saccharomyces cerevisiae, full length (175 amino acids); source: E. coli SHuffle T7, coexpressed with Mdm35, purified (Ni-NTA, Superdex 200)
T1 sequence (looked up): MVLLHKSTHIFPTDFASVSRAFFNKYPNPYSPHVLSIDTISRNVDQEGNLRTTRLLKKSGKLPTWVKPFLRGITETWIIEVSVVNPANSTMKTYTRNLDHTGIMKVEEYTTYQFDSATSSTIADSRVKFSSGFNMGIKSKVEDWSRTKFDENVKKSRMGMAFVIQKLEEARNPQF
Briefly: SEC; 10 μM full-length Ups1–Mdm35 complex (WT or mutant Ups1) after incubation with NBD-PA donor liposomes and centrifugation; supernatant on Superdex 200 10/300 GL; 20 mM Tris-HCl pH 7.5, 150 mM NaCl; absorbance at 280 and 460 nm. (In general: In gel filtration, larger molecules generally elute earlier.)

For assay [2], the target named is T2, full-length His6-Ups1 K6E/K128E (S. cerevisiae, UniProt Q05776 1-175, K6E | K128E).
T2 construct: Ups1, Saccharomyces cerevisiae, full length (175 amino acids); source: E. coli SHuffle T7, coexpressed with Mdm35, purified (Ni-NTA, Superdex 200)
T2 sequence (looked up): T1 sequence (looked up) with K6E, K25R, K128E
The description is as above.

The target in assay [3] is T3, full-length His6-Ups1 R25E (S. cerevisiae, UniProt Q05776 1-175, R25E).
T3 construct: Ups1, Saccharomyces cerevisiae, full length (175 amino acids); source: E. coli SHuffle T7, coexpressed with Mdm35, purified (Ni-NTA, Superdex 200)
T3 sequence (looked up): T1 sequence (looked up) with K25E
Described as above.

In assay [4] the target is T4, full-length His6-Ups1 K61E/K155E (S. cerevisiae, UniProt Q05776 1-175, K61E | K155E).
T4 construct: Ups1, Saccharomyces cerevisiae, full length (175 amino acids); source: E. coli SHuffle T7, coexpressed with Mdm35, purified (Ni-NTA, Superdex 200)
T4 sequence (looked up): T1 sequence (looked up) with K25R, K61E, K155E
The description is as above.

The target in assay [5] is T5, full-length His6-Ups1 ΔLid (lacking the Ω1 loop, residues 62–71) (S. cerevisiae, UniProt Q05776 1-175, ΔLid (lacking residues 62–71)).
T5 construct: Ups1, Saccharomyces cerevisiae, full length (175 amino acids) less residues 62-71; source: E. coli SHuffle T7, coexpressed with Mdm35, purified (Ni-NTA, Superdex 200)
T5 sequence (looked up): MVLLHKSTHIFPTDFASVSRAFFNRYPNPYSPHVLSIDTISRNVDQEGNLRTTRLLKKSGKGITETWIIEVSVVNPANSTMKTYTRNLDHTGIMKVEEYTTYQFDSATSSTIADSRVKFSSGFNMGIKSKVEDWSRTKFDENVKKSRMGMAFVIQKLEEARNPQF
The assay is described as above.

In assay [6] the target is T6, full-length Ups1, N-terminally His6 tagged (from the His6–Ups1–Mdm35 complex) (S. cerevisiae, UniProt Q05776 1-175).
T6 construct: Ups1, Saccharomyces cerevisiae, full length (175 amino acids); Added to the assays as the purified complex with Mdm35; also called WT Ups1; Ups1WT; source: E. coli SHuffle T7, coexpressed with Mdm35, purified (Ni-NTA, Superdex 200); not shown: His6, N-terminal, kept
T6 sequence (looked up): T1 sequence (looked up) with K25R
The description is as above.

For assay [7], the target named is T7, full-length His6-Ups1 N24C (S. cerevisiae, UniProt Q05776 1-175, N24C).
T7 construct: Ups1, Saccharomyces cerevisiae, full length (175 amino acids); In the pull-down with GST-Mdm35: the chain set free from Mdm35N25C by pretreatment with DTT; source: E. coli SHuffle T7, coexpressed with Mdm35N25C, purified (Ni-NTA, Superdex 200); not shown: His6, N-terminal, kept
T7 sequence (looked up): T1 sequence (looked up) with N24C, K25R
Briefly: cross-linking; disulfide bond between Ups1N24C and Mdm35N25C on separate chains; SDS–PAGE with or without β-mercaptoethanol, CBB staining.

For assay [8], the target named is T8, Ups1ΔC5 (Ups1 lacking the C-terminal five residues), N-terminally His6 tagged (S. cerevisiae, UniProt Q05776 1-170).
T8 construct: Ups1, Saccharomyces cerevisiae; full length is 175 amino acids, this construct lacks the C-terminal five residues; No removal of the His6 tag is described; the complex with PA was purified again on Ni-NTA before crystallisation; also called His6-Ups1ΔC5; source: E. coli SHuffle T7, coexpressed with Mdm35ΔC5, purified (Ni-NTA, Superdex 200); not shown: His6, N-terminal, kept
T8 sequence (looked up): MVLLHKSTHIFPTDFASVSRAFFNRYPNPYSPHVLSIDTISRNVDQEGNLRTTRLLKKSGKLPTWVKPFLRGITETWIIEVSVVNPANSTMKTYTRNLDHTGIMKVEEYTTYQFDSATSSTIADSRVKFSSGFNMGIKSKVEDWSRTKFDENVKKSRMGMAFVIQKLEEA
Briefly: crystal structure; Ups1ΔC5–Mdm35ΔC5 complex without PA, 1.40 Å; sitting drop at 20 °C, 0.2 M ammonium citrate tribasic pH 7.0, 20% polyethylene glycol 3,350.

B1: full-length Mdm35 (from the His6–Ups1–Mdm35 complex) (natural protein, S. cerevisiae, UniProt O60200 1-86, looked up)
chain: MGNIMSASFAPECTDLKTKYDSCFNEWYSEKFLKGKSVENECSKQWYAYTTCVNAALVKQGIKPALDEAREEAPFENGGKLKEVDK
notes: Mdm35, Saccharomyces cerevisiae, full length (86 residues); The coexpression plasmid encodes GST-Mdm35; also called Mdm35WT; source: E. coli SHuffle T7, coexpressed with His6-Ups1, purified (Ni-NTA, Superdex 200)
On to B1, for which the binding result in assay [1], in assay [2], in assay [3], in assay [4], in assay [5] and in assay [6] was “binds” each time.

B2: full-length Mdm35 N25C (natural protein, S. cerevisiae, UniProt O60200 1-86, looked up)
chain: B1 chain with N25C
notes: Mdm35, Saccharomyces cerevisiae, full length (86 residues); The coexpression plasmid encodes GST-Mdm35; removal of GST is not described; source: E. coli SHuffle T7, coexpressed with His6-Ups1N24C, purified (Ni-NTA, Superdex 200)
On to B2, for which, in assay [7], the binding result is “binds”.

B3: Mdm35ΔC5 (Mdm35 lacking the C-terminal five residues) (domain or fragment, S. cerevisiae, UniProt O60200 1-81, looked up)
chain: MGNIMSASFAPECTDLKTKYDSCFNEWYSEKFLKGKSVENECSKQWYAYTTCVNAALVKQGIKPALDEAREEAPFENGGKL
notes: Mdm35, Saccharomyces cerevisiae; full length is 86 residues, this construct lacks the C-terminal five residues; The coexpression plasmid encodes GST-Mdm35ΔC5; the stated 31 kDa of the heterodimer implies that GST was no longer on the chain, but its removal from the complex is not described; For Mdm35 crystallised alone (4YTV) GST was cleaved with PreScission protease; Disulfides Cys13–Cys52 and …
For B3, the binding result in assay [8] is reported as “binds”.
